Data as given in US7115262.

Legend:
[1] = target: HIV-1 Env (LAV) (HIV-1 (LAV)) (UniProt P03377); test: cell-based or functional assay
[2] = target: wildtype (WT) SF162 Env (HIV-1 (SF162)) (UniProt P19550); test: cell-based or functional assay

| % control, Standard Assay (CXCR4 and CD4 on target cells), 17b at 0.1 µg/ml [1] | % control, Standard Assay (CXCR4 and CD4 on target cells), 17b at 0.5 µg/ml [1] | % control, Standard Assay (CXCR4 and CD4 on target cells), 17b at 1 µg/ml [1] | % control, Standard Assay (CXCR4 and CD4 on target cells), 17b at 5 µg/ml [1] | % control, sCD4 Assay (CXCR4 alone on target cells, 200 nM soluble CD4 added), 17b at 0.1 µg/ml [1] | % control, sCD4 Assay (CXCR4 alone on target cells, 200 nM soluble CD4 added), 17b at 0.5 µg/ml [1] | % control, sCD4 Assay (CXCR4 alone on target cells, 200 nM soluble CD4 added), 17b at 1 µg/ml [1] | % control, sCD4 Assay (CXCR4 alone on target cells, 200 nM soluble CD4 added), 17b at 5 µg/ml [1] | β-gal, Standard Assay (CXCR4 and CD4 on target cells), 17b at 0.1 µg/ml [1] | β-gal, Standard Assay (CXCR4 and CD4 on target cells), 17b at 0.5 µg/ml [1] | β-gal, Standard Assay (CXCR4 and CD4 on target cells), 17b at 1 µg/ml [1] | β-gal, Standard Assay (CXCR4 and CD4 on target cells), 17b at 5 µg/ml [1] | β-gal, sCD4 Assay (CXCR4 alone on target cells, 200 nM soluble CD4 added), 17b at 0.1 µg/ml [1] | β-gal, sCD4 Assay (CXCR4 alone on target cells, 200 nM soluble CD4 added), 17b at 0.5 µg/ml [1] | β-gal, sCD4 Assay (CXCR4 alone on target cells, 200 nM soluble CD4 added), 17b at 1 µg/ml [1] | β-gal, sCD4 Assay (CXCR4 alone on target cells, 200 nM soluble CD4 added), 17b at 5 µg/ml [1] | Substance | β-gal activity, vaccinia-based reporter gene cell fusion assay, +sCD4 (100 nM), CCR5 target cells without CD4; WT Env duplicate [2] | β-gal activity, vaccinia-based reporter gene cell fusion assay, +sCD4 (100 nM), CCR5 target cells without CD4; WT Env mean [2] |
| --- | --- | --- | --- | --- | --- | --- | --- | --- | --- | --- | --- | --- | --- | --- | --- | --- | --- | --- |
| 93.4 % control | 104 % control | 94.1 % control | 119 % control | 114 % control | 39.2 % control | 14.1 % control | 0 % control | 39.5 | 43.9 | 39.8 | 50.5 | 13.6 | 4.66 | 1.68 | 0 | MAb 17b (antibody) | – | – |
| – | – | – | – | – | – | – | – | – | – | – | – | – | – | – | – | soluble CD4 (from UniProt P01730 26-208) (receptor) | 6.6 | 5.9 |
